This data set deals with the molecule itself. In words: negative-stain electron microscopy.

B1: hRegIIIα E114Q mutant (natural protein, human, UniProt Q06141 38-175, looked up)
chain: IRCPKGSKAYGSHCYALFLSPKSWTDADLACQKRPSGNLVSVLSGAEGSFVSSLVKSIGNSYSYVWIGLHDPTQGTQPNGEGWEWSSSDVMNYFAWERNPSTISSPGHCASLSRSTAFLRWKDYNCNVRLPYVCKFTD
As for B1, the binding result is “binds”.
